Reference: patent US20200262877A1, “ION CHANNEL-BINDING PEPTIDES AND METHODS OF USE THEREOF” (priority 2017, published 2020)

Columns and labels:
NR2B = molecular target: T1, NR2B (Homo sapiens, UniProt Q13224); test: Ion channel panel (IonWorks Barracuda): NR2B; type: cell-based; details: 100% = no change, <100% = inhibition
T1 construct: host or cells: HEK293 or CHO
Protocol: (§1) This example describes a method for assaying ion channel activity in cells.
(§2) Peptides were screened in duplicate at final concentrations of 20 μM and 200 nM, as determined by amino acid analysis, and diluted into HEPES buffered physiological saline (HBPS). HEK293 or CHO cells from the American Type Culture Collection (ATCC) were transfected with the appropriate ion channel before use. HEK293 cells were grown in Dulbecco's Modified Eagle Medium/Nutrient Mixture F-12, and CHO cells were cultured in Ham's F-12 media. All cultures were supplemented with 10% fetal bovine serum, 100 U/ml penicillin G, 100 μg/ml streptomycin sulfate, and the appropriate selection antibiotics. Prior to use, cells were washed twice with Hank's Balanced Salt Solution, and treated with Accutase cell detachment solution (Sigma-Aldrich). Cells were then washed. Peptides and controls were incubated with cells for at least five minutes.
(§3) Percent inhibition was defined as: (1-(Ipeptide/Icontrol))×100%).
(§4) Percent values were calculated using the following formula: % activation=(IPeptide/Icontrol)×100%, where IPeptide is the current produced by co-application a peptide with agonist, and Icontrol refers to the current produced by stimulation in control. Control used for each ion channel is the reference compound matched to a particular channel, as illustrated in TABLE 10 below.

GABA = test: Ion channel panel (IonWorks Barracuda): GABA; type: cell-based; details: 100% = no change, <100% = inhibition
Protocol: as §1, §2, §3, §4

5HT3a = molecular target: T2, 5HT3a (Homo sapiens, UniProt P46098); test: Ion channel panel (IonWorks Barracuda): 5HT3a; type: cell-based
T2 construct: host or cells: HEK293 or CHO
T2 sequence (P46098 whole entry, looked up): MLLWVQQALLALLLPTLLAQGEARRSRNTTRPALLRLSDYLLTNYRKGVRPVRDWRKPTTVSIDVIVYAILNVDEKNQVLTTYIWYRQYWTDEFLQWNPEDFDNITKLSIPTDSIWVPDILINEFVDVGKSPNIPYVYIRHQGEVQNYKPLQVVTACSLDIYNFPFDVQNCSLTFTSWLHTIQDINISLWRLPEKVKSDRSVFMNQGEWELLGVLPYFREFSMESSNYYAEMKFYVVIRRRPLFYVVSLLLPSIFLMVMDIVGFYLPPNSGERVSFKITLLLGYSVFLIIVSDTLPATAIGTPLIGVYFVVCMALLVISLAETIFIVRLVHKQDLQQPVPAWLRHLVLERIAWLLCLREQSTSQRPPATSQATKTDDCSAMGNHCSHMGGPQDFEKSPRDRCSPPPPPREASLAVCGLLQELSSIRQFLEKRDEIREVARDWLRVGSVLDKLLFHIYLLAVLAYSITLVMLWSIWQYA
Protocol: as §1, §2, §3, §4

TRPV1 = molecular target: T3, TRPV1 (Homo sapiens, UniProt Q8NER1); test: Ion channel panel (IonWorks Barracuda): TRPV1; type: cell-based; details: 100% = no change, <100% = inhibition
T3 construct: host or cells: HEK293 or CHO
Protocol: as §1, §2, §3, §4

TRPA1 = molecular target: T4, TRPA1 (Homo sapiens, UniProt O75762); test: Ion channel panel (IonWorks Barracuda): TRPA1; type: cell-based; details: 100% = no change, <100% = inhibition
T4 construct: host or cells: HEK293 or CHO
Protocol: as §1, §2, §3, §4

Nav1.7 = molecular target: T5, Nav1.7 (Homo sapiens, UniProt Q15858); test: cell-based; type: cell-based; details: 100% = no change; for Activity of Nav1.7 with peptide, expressed as a percentage of the reference compound: peptide at 0.2 μM; for Activity of Nav1.7 with peptide (percentage of the reference compound): peptide at 20 μM
T5 construct: host or cells: HEK293 or CHO
Protocol: as §1
as §2, with “Peptides were screened in duplicate at final concentrations of 20 μM and 200 nM, as determined by amino acid analysis, and diluted into HEPES buffered physiological saline (HBPS).” left out
as §3, §4

NR2A = molecular target: T6, NR2A (Homo sapiens, UniProt Q12879); test: Ion channel panel (IonWorks Barracuda): NR2A; type: cell-based; details: 100% = no change, <100% = inhibition
T6 construct: host or cells: HEK293 or CHO
Protocol: as §1, §2, §3, §4

α4β2 = molecular target: T7, α4β2 (Homo sapiens, UniProt P17787+P43681); test: Ion channel panel (IonWorks Barracuda): α4β2; type: cell-based; details: 100% = no change, <100% = inhibition
T7 construct: host or cells: HEK293 or CHO
Protocol: as §1, §2, §3, §4

Kv2.1 = molecular target: T8, Kv2.1 (Homo sapiens, UniProt Q14721); test: cell-based; details: 100% = no change, <100% = inhibition
T8 construct: host or cells: HEK293 or CHO
Protocol: as §1, §2, §3, §4

Cav2.1 = molecular target: T9, Cav2.1 (Homo sapiens, UniProt O00555); test: cell-based; details: 100% = no change, <100% = inhibition
T9 construct: host or cells: HEK293 or CHO
Protocol: as §1, §2, §3, §4

Cav2.2 = molecular target: T10, Cav2.2 (Homo sapiens, UniProt Q00975); test: cell-based; details: 100% = no change, <100% = inhibition
T10 construct: host or cells: HEK293 or CHO
Protocol: as §1, §2, §3, §4

α3β4 = molecular target: T11, α3β4 (Homo sapiens, UniProt P30926+P32297); test: Ion channel panel (IonWorks Barracuda): α3β4; type: cell-based; details: 100% = no change, <100% = inhibition
T11 construct: host or cells: HEK293 or CHO
Protocol: as §1, §2, §3, §4

Kir2.1 = molecular target: T12, Kir2.1 (Homo sapiens, UniProt P63252); test: Ion channel panel (IonWorks Barracuda): Kir2.1; type: cell-based; details: 100% = no change, <100% = inhibition
T12 construct: host or cells: HEK293 or CHO
Protocol: as §1, §2, §3, §4

Kv1.1 = molecular target: T13, Kv1.1 (Homo sapiens, UniProt Q09470); test: cell-based; type: cell-based; details: 100% = no change, <100% = inhibition
T13 construct: host or cells: HEK293 or CHO
Protocol: as §1, §2, §3, §4

Kv1.2 = molecular target: T14, Kv1.2 (Homo sapiens, UniProt P16389); test: cell-based; type: cell-based; details: 100% = no change, <100% = inhibition
T14 construct: host or cells: HEK293 or CHO
Protocol: as §1, §2, §3, §4

Kv1.3 = molecular target: T15, Kv1.3 (Homo sapiens, UniProt P22001); test: cell-based; type: cell-based; details: 100% = no change, <100% = inhibition
T15 construct: host or cells: HEK293 or CHO
Protocol: as §1, §2, §3, §4

hERG = hERG (Homo sapiens, UniProt Q12809); test: in vitro; details: 100% = no change, <100% = inhibition
Protocol: as §1, §2, §3, §4

Nav1.5 = Nav1.5 (Homo sapiens, UniProt Q14524); test: in vitro; details: 100% = no change; for Activity of Nav1.5 with peptide, expressed as a percentage of the reference compound: peptide at 0.2 μM; for Activity of Nav1.5 with peptide (percentage of the reference compound): peptide at 20 μM
Protocol: as §1, §2, §3, §4

[1] = first of two Nav1.7 columns (probably TP1)
[2] = second of two Nav1.7 columns (probably TP2)
[3] = first of two Nav1.5 columns (probably TP1)
[4] = second of two Nav1.5 columns (probably TP2)

T5 sequence (Q15858 whole entry): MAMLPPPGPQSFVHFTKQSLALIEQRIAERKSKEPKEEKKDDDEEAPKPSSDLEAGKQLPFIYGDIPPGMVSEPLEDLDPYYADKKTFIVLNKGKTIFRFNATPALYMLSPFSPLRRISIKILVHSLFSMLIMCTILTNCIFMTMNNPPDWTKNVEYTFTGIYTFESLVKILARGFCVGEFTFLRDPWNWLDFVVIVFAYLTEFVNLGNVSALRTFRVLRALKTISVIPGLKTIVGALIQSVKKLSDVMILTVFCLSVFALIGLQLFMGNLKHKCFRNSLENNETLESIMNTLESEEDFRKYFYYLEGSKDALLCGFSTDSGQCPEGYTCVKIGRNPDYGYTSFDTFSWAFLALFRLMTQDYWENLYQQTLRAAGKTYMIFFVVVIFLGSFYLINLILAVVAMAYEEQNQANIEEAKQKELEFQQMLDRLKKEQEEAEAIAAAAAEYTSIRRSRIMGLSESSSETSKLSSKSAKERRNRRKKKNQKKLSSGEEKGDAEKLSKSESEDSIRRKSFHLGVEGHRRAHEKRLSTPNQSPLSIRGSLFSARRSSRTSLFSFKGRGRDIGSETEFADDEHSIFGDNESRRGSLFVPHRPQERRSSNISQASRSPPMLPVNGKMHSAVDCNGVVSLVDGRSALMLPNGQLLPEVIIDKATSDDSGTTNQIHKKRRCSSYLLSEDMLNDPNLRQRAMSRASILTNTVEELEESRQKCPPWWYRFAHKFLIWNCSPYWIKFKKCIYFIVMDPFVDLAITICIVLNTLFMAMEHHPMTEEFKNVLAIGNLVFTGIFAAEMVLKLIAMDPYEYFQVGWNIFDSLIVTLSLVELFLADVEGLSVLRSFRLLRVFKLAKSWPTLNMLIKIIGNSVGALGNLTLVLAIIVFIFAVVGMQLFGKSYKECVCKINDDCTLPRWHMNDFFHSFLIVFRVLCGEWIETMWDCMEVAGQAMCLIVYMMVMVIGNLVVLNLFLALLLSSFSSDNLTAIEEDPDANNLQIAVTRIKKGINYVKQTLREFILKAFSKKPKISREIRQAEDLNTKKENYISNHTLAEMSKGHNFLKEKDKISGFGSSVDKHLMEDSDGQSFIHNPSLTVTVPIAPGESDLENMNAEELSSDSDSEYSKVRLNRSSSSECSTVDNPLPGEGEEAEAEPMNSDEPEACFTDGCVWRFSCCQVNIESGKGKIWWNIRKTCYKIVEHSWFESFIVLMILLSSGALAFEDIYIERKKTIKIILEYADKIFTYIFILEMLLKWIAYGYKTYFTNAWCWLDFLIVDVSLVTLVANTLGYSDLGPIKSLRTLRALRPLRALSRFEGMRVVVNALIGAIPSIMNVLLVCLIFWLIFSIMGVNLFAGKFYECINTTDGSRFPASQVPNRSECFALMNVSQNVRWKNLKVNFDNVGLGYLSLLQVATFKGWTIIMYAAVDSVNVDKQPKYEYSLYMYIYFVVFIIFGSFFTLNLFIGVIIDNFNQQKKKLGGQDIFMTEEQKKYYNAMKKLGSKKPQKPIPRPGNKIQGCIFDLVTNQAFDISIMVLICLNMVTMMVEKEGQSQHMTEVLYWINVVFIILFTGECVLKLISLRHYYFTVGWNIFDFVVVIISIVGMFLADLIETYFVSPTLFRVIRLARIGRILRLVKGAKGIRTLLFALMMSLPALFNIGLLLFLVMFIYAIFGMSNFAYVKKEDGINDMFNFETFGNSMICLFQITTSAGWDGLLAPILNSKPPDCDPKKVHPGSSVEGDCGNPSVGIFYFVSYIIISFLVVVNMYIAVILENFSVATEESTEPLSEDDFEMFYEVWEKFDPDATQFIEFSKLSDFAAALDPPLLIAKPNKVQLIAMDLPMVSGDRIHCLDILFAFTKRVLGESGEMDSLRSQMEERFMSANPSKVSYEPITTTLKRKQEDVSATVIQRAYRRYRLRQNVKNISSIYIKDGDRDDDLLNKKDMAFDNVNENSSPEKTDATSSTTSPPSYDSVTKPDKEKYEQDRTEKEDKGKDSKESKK
Sequence of Nav1.5 (Q14524 whole entry): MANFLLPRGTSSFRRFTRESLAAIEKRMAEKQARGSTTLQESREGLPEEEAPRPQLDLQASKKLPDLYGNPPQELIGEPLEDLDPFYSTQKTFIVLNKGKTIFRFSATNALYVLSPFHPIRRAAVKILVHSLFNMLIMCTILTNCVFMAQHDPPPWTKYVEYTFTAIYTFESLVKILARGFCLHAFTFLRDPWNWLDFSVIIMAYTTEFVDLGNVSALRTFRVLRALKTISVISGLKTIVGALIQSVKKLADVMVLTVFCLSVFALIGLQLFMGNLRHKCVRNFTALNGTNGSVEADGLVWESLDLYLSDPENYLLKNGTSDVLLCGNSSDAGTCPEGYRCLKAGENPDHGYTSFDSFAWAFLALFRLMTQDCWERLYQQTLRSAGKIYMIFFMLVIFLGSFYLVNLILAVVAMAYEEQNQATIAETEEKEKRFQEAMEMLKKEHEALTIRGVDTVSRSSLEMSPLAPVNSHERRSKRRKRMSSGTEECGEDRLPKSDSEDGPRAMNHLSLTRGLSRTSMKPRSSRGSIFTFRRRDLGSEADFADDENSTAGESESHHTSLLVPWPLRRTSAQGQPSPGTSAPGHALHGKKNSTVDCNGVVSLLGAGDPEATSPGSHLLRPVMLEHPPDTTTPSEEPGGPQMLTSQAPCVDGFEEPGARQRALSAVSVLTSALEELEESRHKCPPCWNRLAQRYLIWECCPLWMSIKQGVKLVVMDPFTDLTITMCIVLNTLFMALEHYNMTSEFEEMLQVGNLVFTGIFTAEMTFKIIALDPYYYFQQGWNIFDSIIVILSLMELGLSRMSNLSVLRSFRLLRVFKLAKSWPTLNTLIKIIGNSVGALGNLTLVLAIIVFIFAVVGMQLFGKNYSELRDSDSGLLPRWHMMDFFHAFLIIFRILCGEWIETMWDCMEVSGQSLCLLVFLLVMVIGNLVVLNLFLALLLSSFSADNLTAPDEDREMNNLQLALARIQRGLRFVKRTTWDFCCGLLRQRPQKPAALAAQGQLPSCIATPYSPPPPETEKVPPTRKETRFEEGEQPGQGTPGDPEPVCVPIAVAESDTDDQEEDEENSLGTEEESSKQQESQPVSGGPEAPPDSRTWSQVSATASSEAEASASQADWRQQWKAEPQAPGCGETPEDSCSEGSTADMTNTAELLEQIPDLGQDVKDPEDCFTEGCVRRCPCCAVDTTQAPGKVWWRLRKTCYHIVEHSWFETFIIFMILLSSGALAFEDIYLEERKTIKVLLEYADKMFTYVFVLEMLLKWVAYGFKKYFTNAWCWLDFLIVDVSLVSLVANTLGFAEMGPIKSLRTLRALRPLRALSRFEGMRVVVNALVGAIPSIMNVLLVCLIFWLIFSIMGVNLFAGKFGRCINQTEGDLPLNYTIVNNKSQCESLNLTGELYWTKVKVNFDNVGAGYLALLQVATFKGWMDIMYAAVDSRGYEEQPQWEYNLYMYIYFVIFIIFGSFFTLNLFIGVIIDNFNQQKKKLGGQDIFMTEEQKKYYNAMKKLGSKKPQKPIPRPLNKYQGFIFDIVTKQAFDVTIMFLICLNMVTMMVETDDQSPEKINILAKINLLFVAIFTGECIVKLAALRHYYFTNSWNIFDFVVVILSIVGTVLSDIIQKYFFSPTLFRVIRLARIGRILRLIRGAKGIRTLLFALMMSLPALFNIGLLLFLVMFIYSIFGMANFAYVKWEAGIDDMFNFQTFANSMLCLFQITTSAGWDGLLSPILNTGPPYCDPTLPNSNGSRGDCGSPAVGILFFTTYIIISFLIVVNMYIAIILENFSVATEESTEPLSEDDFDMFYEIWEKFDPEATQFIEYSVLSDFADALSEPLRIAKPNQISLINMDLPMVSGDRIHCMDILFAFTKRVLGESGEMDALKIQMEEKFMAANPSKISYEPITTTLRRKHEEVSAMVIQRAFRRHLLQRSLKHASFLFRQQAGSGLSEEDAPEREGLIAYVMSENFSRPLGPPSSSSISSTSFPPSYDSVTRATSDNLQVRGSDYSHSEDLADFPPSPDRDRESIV
T3 sequence (Q8NER1 whole entry): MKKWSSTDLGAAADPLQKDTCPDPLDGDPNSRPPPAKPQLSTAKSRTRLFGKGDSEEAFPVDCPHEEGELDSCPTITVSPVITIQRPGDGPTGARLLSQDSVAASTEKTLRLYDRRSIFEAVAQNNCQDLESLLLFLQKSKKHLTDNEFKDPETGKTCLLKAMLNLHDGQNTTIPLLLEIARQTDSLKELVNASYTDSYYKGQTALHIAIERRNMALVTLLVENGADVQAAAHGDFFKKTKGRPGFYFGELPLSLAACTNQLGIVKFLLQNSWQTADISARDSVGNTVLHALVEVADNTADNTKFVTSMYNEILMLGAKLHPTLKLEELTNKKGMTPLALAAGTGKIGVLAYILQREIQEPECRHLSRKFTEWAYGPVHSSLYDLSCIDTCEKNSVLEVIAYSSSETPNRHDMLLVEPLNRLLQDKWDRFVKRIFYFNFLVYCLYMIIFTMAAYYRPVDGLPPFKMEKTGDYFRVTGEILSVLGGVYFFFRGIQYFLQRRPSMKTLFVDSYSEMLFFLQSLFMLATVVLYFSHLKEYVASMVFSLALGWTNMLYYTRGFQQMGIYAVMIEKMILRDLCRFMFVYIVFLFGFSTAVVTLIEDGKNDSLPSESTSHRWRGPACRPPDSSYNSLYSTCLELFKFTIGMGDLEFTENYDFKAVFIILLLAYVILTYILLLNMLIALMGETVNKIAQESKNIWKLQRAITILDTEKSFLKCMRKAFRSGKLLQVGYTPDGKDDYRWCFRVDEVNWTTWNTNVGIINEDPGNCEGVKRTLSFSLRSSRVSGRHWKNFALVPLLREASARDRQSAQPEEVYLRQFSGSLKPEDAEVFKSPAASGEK

“13 (GSQKILSNRCNNSSECIPHCIRIFGTRAAKCINRKCYCYP) [compound 13]” was tested, and the “Activity of NR2B with peptide, expressed as a percentage of the reference compound” value (NR2B; peptide at 0.2 μM) was 122%, the “Activity of NR2B with peptide (percentage of the reference compound)” value (NR2B; peptide at 20 μM) was 117% and the “Activity of GABA with peptide, expressed as a percentage of the reference compound” value (GABA; peptide at 0.2 μM) was 107%. For the same substance, the “Activity of GABA with peptide (percentage of the reference compound)” value (GABA; peptide at 20 μM) was 93%, the “Activity of 5HT3a with peptide (percentage of the reference compound)” value (5HT3a) was 84% and the “Activity of 5HT3a with peptide, expressed as a percentage of the reference compound” value (5HT3a) was 96%. For the same substance, the “Activity of TRPV1 with peptide, expressed as a percentage of the reference compound” value (TRPV1; peptide at 0.2 μM) was 97%, the “Activity of TRPV1 with peptide (percentage of the reference compound)” value (TRPV1; peptide at 20 μM) was 88% and the “Activity of TRPA1 with peptide, expressed as a percentage of the reference compound” value (TRPA1; peptide at 0.2 μM) was 129%. The “Activity of TRPA1 with peptide (percentage of the reference compound)” value (TRPA1; peptide at 20 μM) was 113%, the “Activity of Nav1.7 with peptide, expressed as a percentage of the reference compound” value (Nav1.7; [1]) was 61% and the “Activity of Nav1.7 with peptide, expressed as a percentage of the reference compound” value (Nav1.7; [2]) was 66%. For the same substance, the “Activity of Nav1.7 with peptide (percentage of the reference compound)” value (Nav1.7; [1]) was 71%, the “Activity of Nav1.7 with peptide (percentage of the reference compound)” value (Nav1.7; [2]) was 62% and the “Activity of NR2A with peptide, expressed as a percentage of the reference compound” value (NR2A; peptide at 0.2 μM) was 94%. The “Activity of NR2A with peptide (percentage of the reference compound)” value (NR2A; peptide at 20 μM) was 108%, the “Activity of a4b2 with peptide, expressed as a percentage of the reference compound” value (α4β2; peptide at 0.2 μM) was 97% and the “Activity of a4b2 with peptide (percentage of the reference compound)” value (α4β2; peptide at 20 μM) was 80%. The “Activity of Kv2.1 with peptide, expressed as a percentage of the reference compound” value (Kv2.1; peptide at 0.2 μM) was 104%, the “Activity of Kv2.1 with peptide (percentage of the reference compound)” value (Kv2.1; peptide at 20 μM) was 116% and the “Activity of Cav2.1 with peptide, expressed as a percentage of the reference compound” value (Cav2.1; peptide at 0.2 μM) was 109%. For the same substance, the “Activity of Cav2.1 with peptide (percentage of the reference compound)” value (Cav2.1; peptide at 20 μM) was 100%, the “Activity of Cav2.2 with peptide, expressed as a percentage of the reference compound” value (Cav2.2; peptide at 0.2 μM) was 121% and the “Activity of Cav2.2 with peptide (percentage of the reference compound)” value (Cav2.2; peptide at 20 μM) was 100%. For the same substance, the “Activity of a3b4 with peptide, expressed as a percentage of the reference compound” value (α3β4; peptide at 0.2 μM) was 103%, the “Activity of a3b4 with peptide (percentage of the reference compound)” value (α3β4; peptide at 20 μM) was 83% and the “Activity of Kir2.1 with peptide, expressed as a percentage of the reference compound” value (Kir2.1; peptide at 0.2 μM) was 97%. For the same substance, the “Activity of Kir2.1 with peptide (percentage of the reference compound)” value (Kir2.1; peptide at 20 μM) was 98%, the “Activity of Kv1.1 with peptide, expressed as a percentage of the reference compound” value (Kv1.1; peptide at 0.2 μM) was 107% and the “Activity of Kv1.1 with peptide (percentage of the reference compound)” value (Kv1.1; peptide at 20 μM) was 79%. For the same substance, the “Activity of Kv1.2 with peptide, expressed as a percentage of the reference compound” value (Kv1.2; peptide at 0.2 μM) was 88%, the “Activity of Kv1.2 with peptide (percentage of the reference compound)” value (Kv1.2; peptide at 20 μM) was 40% and the “Activity of Kv1.3 with peptide, expressed as a percentage of the reference compound” value (Kv1.3; peptide at 0.2 μM) was 68%. The “Activity of Kv1.3 with peptide (percentage of the reference compound)” value (Kv1.3; peptide at 20 μM) was 64%, the “Activity of hERG with peptide, expressed as a percentage of the reference compound” value (hERG; peptide at 0.2 μM) was 89% and the “Activity of hERG with peptide (percentage of the reference compound)” value (hERG; peptide at 20 μM) was 67%. The “Activity of Nav1.5 with peptide, expressed as a percentage of the reference compound” value (Nav1.5; [3]) was 98%, the “Activity of Nav1.5 with peptide, expressed as a percentage of the reference compound” value (Nav1.5; [4]) was 95% and the “Activity of Nav1.5 with peptide (percentage of the reference compound)” value (Nav1.5; [3]) was 97%. The “Activity of Nav1.5 with peptide (percentage of the reference compound)” value (Nav1.5; [4]) was 101%.
